Measured values reported in patent US20250057927A1, “ALPHA-1 A[…] FROM YEAST FOR USE IN THE TREATMENT OF VIRAL INFECTIONS” (priority 2021, published 2025).
Entries after “also recorded” stand apart in the source; their conditions may differ. Counter-ions that a name gives are not always drawn.

Assays:
TMPRSS2 of Caco2 cells [1] = target: TMPRSS2 of Caco2 cells (UniProt O15393); assay: cell-based or functional assay
[2] = test system: lentiviral SARS-CoV-2 pseudoparticles; type: cell-based
SARS-CoV-2 [3] = settings: pretreatment, Vero-E6 cells; cited from earlier work
PEDV = settings: pretreatment, Vero-E6 cells; cited from earlier work
[4] = test system: Main Protease of coronaviruses; settings: enzymatical assays; cited from earlier work
Covid-19 = test system: Covid-19; set-up: species or system patients; settings: in vivo
[5] = test system: protease-mediated entry of SARS-CoV-2; settings: in vitro; cited from earlier work
TMPRSS2 of Caco2 cells [6] = target: TMPRSS2 of Caco2 cells (UniProt O15393 1-492); assay: cell-based or functional assay
SARS-CoV-2 [7] = type: cell-based
[8] = target: T1, recombinant human TMPRSS2 (Homo sapiens, UniProt O15393); assay: TMPRSS2 activity assay (fluorogenic reporter peptide substrate); type: biochemical; settings: dose-dependent; read-out: IC50 of TMPRSS2 proteolytic activity
T1 construct: purchased LSBio LS-G57269
Description: The respective protease (TMPRSS2 or neutrophil elastase) is mixed with a serial dilution of rhAAT, camostat mesylate or Prolastin resulting in the formation of a complex between the test compound and the protease. Subsequently, a fluorogenic reporter peptide substrate is added. Upon cleavage of the reporter peptide substrate by the protease, a fluorescent dye is set free.
For assessing the activity of recombinant human TMPRSS2, 25 μl of serially diluted Prolastin, camostat mesylate or rhAAT is incubated with 25 μl of 2 μg/ml recombinant TMPRSS2 enzyme (LSBio #LS-G57269) in assay buffer (50 mM Tris-HCL, […] NaCl pH 8.0) for 15 min at 37° C. Next, 50 μl of 20 μM BOC-Gln-Ala-Arg-AMC protease substrate (Bachem #4017019) is added and incubated for 2 h at 37° C. Fluorescence intensity is measured after 2 h at an excitation wavelength of 380 nm and emission wavelength of 460 nm in a Synergy™ H1 microplate reader (BioTek) with Gen5 3.04 software. The assay is performed in a 96 well plate with flat bottom.

Caco-2 cells = settings: in the tested concentrations

Chain of TMPRSS2 of Caco2 cells (UniProt O15393) (O15393 whole entry): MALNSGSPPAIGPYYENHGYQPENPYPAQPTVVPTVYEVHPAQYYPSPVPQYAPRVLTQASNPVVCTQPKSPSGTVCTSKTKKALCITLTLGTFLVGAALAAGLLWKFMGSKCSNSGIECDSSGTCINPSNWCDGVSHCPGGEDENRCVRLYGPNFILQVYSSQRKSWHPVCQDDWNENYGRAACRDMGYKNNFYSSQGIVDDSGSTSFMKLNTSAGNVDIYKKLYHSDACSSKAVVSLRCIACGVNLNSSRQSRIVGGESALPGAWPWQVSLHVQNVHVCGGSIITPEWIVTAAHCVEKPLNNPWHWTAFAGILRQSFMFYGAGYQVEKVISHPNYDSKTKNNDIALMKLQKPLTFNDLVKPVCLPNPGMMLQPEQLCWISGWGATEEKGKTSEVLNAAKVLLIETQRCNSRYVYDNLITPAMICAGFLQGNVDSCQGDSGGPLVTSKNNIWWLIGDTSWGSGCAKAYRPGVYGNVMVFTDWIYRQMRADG
Chain of TMPRSS2 of Caco2 cells (UniProt O15393 1-492) (O15393 whole entry): as above
T1 sequence (O15393 whole entry): as above

Molecule: Prolastin: human serum derived AAT (from UniProt P01009 25-418)
- IC50 of inhibiting pseudoparticle entry into Caco2 cells (Prolastin) (TMPRSS2 of Caco2 cells [1]): 3160 µg/mL
- estimated IC90 of pseudoparticle entry into Caco2 cells, derived from FIG. 4 (TMPRSS2 of Caco2 cells [1]): 20000 µg/mL

Molecule: CN(C)C(=O)COC(=O)Cc1ccc(OC(=O)c2ccc(NC(=N)N)cc2)cc1 [camostat mesylate, reference compound]
- inhibition of the entry of SARS-CoV-2 pseudoparticles [2]: inhibits the entry of SARS-CoV-2

Molecule: COc1cc(O)c(CC=C(C)C)c(O)c1C(=O)/C=C/c1ccc(O)cc1 [Xanthohumol]
- SARS-CoV-2 replication (SARS-CoV-2 [3]): restricted
- PEDV replication (PEDV): restricted
- inhibition of protease activities [4]: inhibited protease activities

Molecule: Prolastin
- inhibition of the entry of SARS-CoV-2 pseudoparticles [2]: inhibits the entry of SARS-CoV-2
- Covid-19 rapid tests (Covid-19): negative
- symptoms (Covid-19): no symptoms

Molecule: AAT
- Covid-19 PCR test (Covid-19): negative
- symptoms (Covid-19): significantly improved; also recorded: no symptoms
- restriction of protease-mediated entry of SARS-CoV-2 [5]: potently restricts

B1: rec α1AT from supernatant of Pichia pastoris X33, anion exchange fractions 52 and 53 (other)
chain: EDPQGDAAQKTDTSHHDQDHPTFNKITPNLAEFAFSLYRQLAHQSNSTNIFFSPVSIATAFAMLSLGTKADTHDEILEGLNFNLTEIPEAQIHEGFQELLRTLNQPDSQLQLTTGNGLFLSEGLKLVDKFLEDVKKLYHSEAFTVNFGDTEEAKKQINDYVEKGTQGKIVDLVKELDRDTVFALVNYIFFKGKWERPFEVKDATEEEDFHVDQVTTVKVPMMKRLGMFNIQHCKKLSSWVLLMKYLGNATAIFFLPDEGKLQHLENELTHDIITKFLENEDRRSASLHLPKLSITGTYDLKSVLGQLGITKVFSNGADLSGVTEEAPLKLSKAVHKAVLTIDEKGTEAAGAMFLEAIPMSIPPEVKFNKPFVFLMIEQNTKSPLFMGKVVNPTQK
- IC50 of inhibiting pseudoparticle entry into Caco2 cells (rec α1AT Fraction 52) (TMPRSS2 of Caco2 cells [6]): 3060 µg/mL
- IC50 of inhibiting pseudoparticle entry into Caco2 cells (rec α1AT Fraction 53) (TMPRSS2 of Caco2 cells [6]): 3960 µg/mL

B2: rhAAT (protein)
chain: B1 chain
- inhibition of the entry of SARS-CoV-2 pseudoparticles [2]: inhibits the entry of SARS-CoV-2 similar to Prolastin and camostat mesylate
- pseudoparticle entry [2]: almost no pseudoparticle entry
- SARS-CoV-2 spike expression (SARS-CoV-2 [7]): less detectable than Prolastin treated HAECs
- inhibition of SARS-CoV-2 replication (SARS-CoV-2 [7]): more effectively than Prolastin
- viral titer (SARS-CoV-2 [7]): reduce viral titer
- IC50 [8]: ~350 nM
- toxicity for Caco-2 cells (Caco-2 cells): nontoxic
